Data published in the supplement of paper PMC7877785.
± gives the uncertainty stated by the source.

Test: self-splicing fitness, log relative to wild type (ln ratio); higher = more splicing; Tetrahymena group I intron in knt gene, E. coli kanamycin selection, DiMSum; sequences stand for … in CUCUCU…GGAGGGAAAAGUUAUCAGGCAUGCACCUGGUAGCUAGUCUUUAAACCAAUAGAUUGCAUCGGUUUAAAAGGCAAGACCGUCAAAUUGCGGGAAAGGGGUCAACAGCCGUUCAGUACCAAGUCUCAGGGGAAACUUUGAGAUGGCCUUGCAAAGGGUAUGGUAAUAAGCUGACGGACAUGGUCCUAACCACGCAGCCAAGUCCUAAGUCAACAGAUCUUCUGUUGAUAUGGAUGCAGUUCACAGACUAAAUGUCGGUCGGGGAAGAUGUAUUCUUCUCAUAAGAUAUAGUCGGACCUCUCCUUAAUGGGAGCUAGCGGAUGAAGUGAUGCAACACUGGAGCCGCUGGGAACUAAUUUGUAUGCGAAAGUAUAUUGAUUAGUUUUGGAGUACUCGUGGUCG
In short: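 Colonies from six replicate transformations of E. coli BL21(DE3) were pooled and amplicon-sequenced on an Illumina HiSeq 2500. The library placed an intron with all eight P1ex-region nucleotides randomised inside the knt kanamycin-resistance gene on pET-22b(+), and cells grew overnight at 37°C or 30°C on LB agar with or without 25 μg/mL kanamycin (plus 100 μg/mL carbenicillin, 50 μM IPTG, 0.2% rhamnose). Fitness is the DiMSum error-weighted combination of wild-type-normalised replicate fold changes, kanamycin versus none.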

Row | Sequence | self-splicing fitness (ln) (30 °C) | self-splicing fitness (ln) (37 °C)
1 | CACUAGCAAUAUUACGCGGC | -3.47 ± 0.28 | -2.97 ± 0.25
2 | CACUAGCAAUAUUACGGCUG | -0.972 ± 0.054 | 0.114 ± 0.065
3 | CACUAGCAAUAUUACGGGCG | -0.464 ± 0.087 | -0.0972 ± 0.084
4 | CACUAGCAAUAUUACGGGUC | -2.36 ± 0.14 | -2.27 ± 0.2
5 | CACUAGCAAUAUUACGGUCU | -1.55 ± 0.078 | -0.782 ± 0.11
6 | CACUAGCAAUAUUACGUAAA | -3.48 ± 0.18 | -2.61 ± 0.2
7 | CACUAGCAAUAUUACGUAAC | -3.68 ± 0.27 | -1.88 ± 0.24
8 | CACUAGCAAUAUUACGUAUA | -3.17 ± 0.36 | -1.5 ± 0.23
9 | CACUAGCAAUAUUACGUGCU | -3.69 ± 0.2 | -2.55 ± 0.15
10 | CACUAGCAAUAUUACGUUUA | -4.15 ± 0.23 | -2.68 ± 0.17
11 | CAGAAGCAAUAUUACGAAAC | -4.4 ± 0.46 | -2.18 ± 0.32
12 | CAGAAGCAAUAUUACGAAUG | -2.6 ± 0.14 | -0.683 ± 0.13
13 | CAGAAGCAAUAUUACGACAA | -2.84 ± 0.36 | -1.88 ± 0.31
14 | CAGAAGCAAUAUUACGACCU | -2.86 ± 0.4 | 0.0264 ± 0.23
15 | CAGAAGCAAUAUUACGCAGU | -2.53 ± 0.19 | -3.48 ± 0.23
16 | CAGAAGCAAUAUUACGCCCU |  | -1.83 ± 0.43
17 | CAGAAGCAAUAUUACGCCUC |  | -0.543 ± 0.28
18 | CAGAAGCAAUAUUACGCUUC |  | -3.54 ± 0.4
19 | CAGAAGCAAUAUUACGGAAA |  | -2.45 ± 0.36
20 | CAGAAGCAAUAUUACGGACA | -1.93 ± 0.16 | -0.876 ± 0.13
21 | CAGAAGCAAUAUUACGGCAC | -3.44 ± 0.41 | -1.87 ± 0.32
22 | CAGAAGCAAUAUUACGGCCC | -2.98 ± 0.44 | 
23 | CAGAAGCAAUAUUACGGCUA | 0.172 ± 0.11 | -0.0647 ± 0.084
24 | CAGAAGCAAUAUUACGGCUU | -3.46 ± 0.21 | -3.66 ± 0.29
25 | CAGAAGCAAUAUUACGGGGC | -3.13 ± 0.17 | -2.89 ± 0.27

Row | Sequence | self-splicing fitness (ln) (30 °C) | self-splicing fitness (ln) (37 °C)
26 | CAGAAGCAAUAUUACGGUGA | -2.21 ± 0.096 | -1.13 ± 0.1
27 | CAGAAGCAAUAUUACGGUUU | -2.93 ± 0.093 | -2.83 ± 0.12
28 | CAGAAGCAAUAUUACGUACC | -2.33 ± 0.24 | -1.55 ± 0.27
29 | CAGAAGCAAUAUUACGUAGC | -3.8 ± 0.27 | -3.32 ± 0.28
30 | CAGAAGCAAUAUUACGUCCC | -2.92 ± 0.3 | -1.49 ± 0.28
31 | CAGAAGCAAUAUUACGUCGG | -1.61 ± 0.14 | -0.979 ± 0.2
32 | CAGAAGCAAUAUUACGUCUG | -3.35 ± 0.16 | -3.09 ± 0.21
33 | CAGAAGCAAUAUUACGUCUU | -1.7 ± 0.089 | -0.306 ± 0.11
34 | CAGAAGCAAUAUUACGUUAC |  | -2.72 ± 0.2
35 | CAGAAGCAAUAUUACGUUAU | -3.44 ± 0.35 | -2.75 ± 0.28
36 | CAGAAGCAAUAUUACGUUUA | -3.13 ± 0.18 | -1.95 ± 0.12
37 | CAGCAGCAAUAUUACGAAUU | -4.16 ± 0.27 | -2.23 ± 0.23
38 | CAGCAGCAAUAUUACGAGCC |  | -1.48 ± 0.23
39 | CAGCAGCAAUAUUACGAUGU | -4.21 ± 0.22 | -2.6 ± 0.15
40 | CAGCAGCAAUAUUACGAUUG | -2.36 ± 0.093 | -0.731 ± 0.09
41 | CAGCAGCAAUAUUACGCACU | -0.834 ± 0.1 | -1.8 ± 0.12
42 | CAGCAGCAAUAUUACGCCCU | -1.89 ± 0.1 | 0.0797 ± 0.13
43 | CAGCAGCAAUAUUACGCCGG | -0.792 ± 0.09 | -0.31 ± 0.098
44 | CAGCAGCAAUAUUACGCCUG | -3.7 ± 0.22 | -2.35 ± 0.21
45 | CAGCAGCAAUAUUACGCGAU | -3.91 ± 0.22 | -1.83 ± 0.17
46 | CAGCAGCAAUAUUACGCGGC | -4.03 ± 0.27 | -2.95 ± 0.18
47 | CAGCAGCAAUAUUACGCUAU | -2.47 ± 0.27 | -2 ± 0.18
48 | CAGCAGCAAUAUUACGCUCG | -1.95 ± 0.16 | -0.385 ± 0.21
49 | CAGCAGCAAUAUUACGCUGA | -3.02 ± 0.22 | -2.09 ± 0.18
50 | CAGCAGCAAUAUUACGGAGG | -1.19 ± 0.082 | -0.627 ± 0.12

Row | Sequence | self-splicing fitness (ln) (30 °C) | self-splicing fitness (ln) (37 °C)
51 | CAGCAGCAAUAUUACGGCAU | -0.874 ± 0.074 | -0.81 ± 0.096
52 | CAGCAGCAAUAUUACGGCCC | -0.505 ± 0.15 | -0.0529 ± 0.23
53 | CAGCAGCAAUAUUACGGGCA | -2.11 ± 0.095 | -1.07 ± 0.099
54 | CAGCAGCAAUAUUACGGGUU | -4.98 ± 0.26 | -1.6 ± 0.13
55 | CAGCAGCAAUAUUACGGUUU | -0.8 ± 0.062 | -0.225 ± 0.084
56 | CAGCAGCAAUAUUACGUAAC | -4.17 ± 0.39 | -2.88 ± 0.32
57 | CAGCAGCAAUAUUACGUACC | -3.85 ± 0.16 | -2.46 ± 0.16
58 | CAGCAGCAAUAUUACGUACU | -2.54 ± 0.24 | -2.5 ± 0.32
59 | CAGCAGCAAUAUUACGUAGG | -0.47 ± 0.063 | -0.331 ± 0.094
60 | CAGCAGCAAUAUUACGUCGG | -0.346 ± 0.063 | -0.0699 ± 0.09
61 | CAGCAGCAAUAUUACGUGAA | -2.06 ± 0.075 | -0.955 ± 0.09
62 | CAGCAGCAAUAUUACGUGAC | -3.41 ± 0.24 | -1.86 ± 0.19
63 | CAGCAGCAAUAUUACGUGAG | -0.675 ± 0.06 | -0.267 ± 0.086
64 | CAGCAGCAAUAUUACGUGGG | -3.53 ± 0.14 | -2.31 ± 0.11
65 | CAGGAGCAAUAUUACGAACG | -0.795 ± 0.11 | -0.844 ± 0.13
66 | CAGGAGCAAUAUUACGAAUG | -3.6 ± 0.2 | -2.76 ± 0.22
67 | CAGGAGCAAUAUUACGACUU | -1.48 ± 0.19 | -0.618 ± 0.22
68 | CAGGAGCAAUAUUACGCAUU |  | 0.11 ± 0.4
69 | CAGGAGCAAUAUUACGCCGU | -4.09 ± 0.31 | -2.29 ± 0.29
70 | CAGGAGCAAUAUUACGCGCA | -3.62 ± 0.3 | -1.62 ± 0.25
71 | CAGGAGCAAUAUUACGGACG | -0.757 ± 0.1 | -0.376 ± 0.11
72 | CAGGAGCAAUAUUACGGAGC | -2.2 ± 0.39 | -3.3 ± 0.47
73 | CAGGAGCAAUAUUACGGGGA | -5.01 ± 0.38 | -3.47 ± 0.37
74 | CAGGAGCAAUAUUACGUCGG | -0.734 ± 0.099 | -0.66 ± 0.13
75 | CAGUAGCAAUAUUACGAAAA | -3.58 ± 0.47 | -1.8 ± 0.32

Row | Sequence | self-splicing fitness (ln) (30 °C) | self-splicing fitness (ln) (37 °C)
76 | CAGUAGCAAUAUUACGAAUU | -3.34 ± 0.28 | 
77 | CAGUAGCAAUAUUACGACUU | 0.0553 ± 0.058 | 0.35 ± 0.071
78 | CAGUAGCAAUAUUACGAUAA | -3.55 ± 0.47 | 
79 | CAGUAGCAAUAUUACGAUCA | -1.67 ± 0.24 | -2.04 ± 0.32
80 | CAGUAGCAAUAUUACGAUGU | -2.34 ± 0.16 | -1.65 ± 0.18
81 | CAGUAGCAAUAUUACGCAUA | -2.04 ± 0.2 | -1.59 ± 0.21
82 | CAGUAGCAAUAUUACGCAUG | -2.31 ± 0.2 | -2.46 ± 0.29
83 | CAGUAGCAAUAUUACGCUCC |  | -1.31 ± 0.4
84 | CAGUAGCAAUAUUACGGGCG | -0.256 ± 0.089 | 0.0762 ± 0.098
85 | CAGUAGCAAUAUUACGGUUA | -2.63 ± 0.14 | -2.69 ± 0.15
86 | CAGUAGCAAUAUUACGUCUU | -1.17 ± 0.067 | 0.135 ± 0.076
87 | CAGUAGCAAUAUUACGUGAC | -4.5 ± 0.36 | -2.23 ± 0.31
88 | CAGUAGCAAUAUUACGUGCA | -3.14 ± 0.13 | -2.45 ± 0.14
89 | CAGUAGCAAUAUUACGUGUA | -4.62 ± 0.34 | -2.55 ± 0.19
90 | CAGUAGCAAUAUUACGUUCG | 0.207 ± 0.07 | 0.209 ± 0.1
91 | CAUAAGCAAUAUUACGAAAC | -3.31 ± 0.39 | -2.38 ± 0.45
92 | CAUAAGCAAUAUUACGACAA | -3.05 ± 0.28 | -1.59 ± 0.19
93 | CAUAAGCAAUAUUACGACAG | -0.32 ± 0.072 | 0.334 ± 0.09
94 | CAUAAGCAAUAUUACGACCG | 0.135 ± 0.085 | 0.553 ± 0.14
95 | CAUAAGCAAUAUUACGACGA | -2.01 ± 0.17 | -0.546 ± 0.11
96 | CAUAAGCAAUAUUACGACUA | -1.94 ± 0.095 | -0.427 ± 0.078
97 | CAUAAGCAAUAUUACGAUAA | -4.17 ± 0.37 | -1.45 ± 0.2
98 | CAUAAGCAAUAUUACGAUAG | 0.359 ± 0.072 | 0.232 ± 0.084
